Results as given in patent US20090275502A1, “METHODS AND COMPOSITIONS FOR ENHANCING DEVELOPMENTAL POTENTIAL OF OOCYTES AND PREIMPLANTATION EMBRYOS” (MOUNT SINAI HOSPITAL, priority 2005, published 2009).

Experiments:
Type in all cases: cell-based, mouse
FVB oocytes [1] = experiment: Reactive oxygen species (H2DCFDA) content of FVB oocytes; conditions: co-treatment of FVB oocytes; inhibitor 2 μg ml^−1, 30 min; data not shown
Description: Reduced glutathione (GSH) content: Quantitation of cellular GSH was assayed by use of monochlorobimane (Molecular Probes, Eugene, Oreg.), a cell-permeant dye that becomes fluorescent upon conjugation to thiol groups (Nasr-Esfahani and Johnson 1992). One group of untreated oocytes served as a control for measuring baseline GSH levels, whereas two other groups of oocytes were treated with I mM hydrogen peroxide (Sigma). For the latter, one group was exposed to hydrogen peroxide for 90 min (oxidative insult) whereas the second group was incubated with hydrogen peroxide for 30 min and transferred to fresh culture medium without hydrogen peroxide for an additional 60 min (recovery after oxidative insult). During the last 15 min of incubation, monochlorobimane was added to a final concentration of 1 mM, after which the oocytes were washed in fresh culture medium. Imaging and micrograph analyses were then conducted using a deconvolution microscope equipped with a cyan fluorescent protein filter. The average fluorescence intensities were tabulated on a per oocyte basis, and the data were then compiled per group. Reactive oxygen species: Formation of ROS was determined through the use of 2′,7′-dichlorodihydrofluorescein diacetate (H2DCFDA; Molecular Probes) as described (Yang et al. 1998). The H2DCFDA dye is membrane permeant, and upon entering the cell the acetate groups are hydrolyzed, creating a membrane impermeant form of the dye (H2DCF). Endogenous ROS oxidize this polar form of the dye to a quantifiable fluorogenic compound (DCF). Oocytes were mixed with a freshly prepared solution of 0.01 M H2DCFDA and incubated for 15 min. After extensive washing in fresh culture medium, imaging was carried out using a deconvolution microscope with a FITC filter. Total light intensity for each optical section and average light intensity for each oocyte were determined using the Delta Vision Software Analysis program. In order to determine baseline fluorescence, control oocytes (unstained) were incubated with an appropriate volume of vehicle (DMSO) prior to imaging. […]

FVB oocytes [2] = experiment: Electron microscopy of mitochondrial ultrastructure in FVB oocytes; conditions: 10 mM, 3 h; versus vehicle
Description: Electron microscopy: Oocytes were cultured without or with pyruvate (10 mM) for 3 h prior to being fixed for EM tomography. The oocytes were embedded in agarose and prepared for tomography using conventional protocols for good structural preservation (Ricci et al. 2004). To survey the preservation quality of the oocytes, thin-sectioned materials (−80 nm) were examined using a JEOL 1200FX electron microscope. Three-dimensional reconstructions of portions of the cell containing mitochondria were generated using standard techniques (Perkins et al. 2003). Sections with a thickness between 300-500 nm were cut out, and stained for 30 min in 2% aqueous uranyl acetate, followed by 30 min in lead salts. Next, fiducial cues consisting of 20 nm colloidal gold particles were deposited on both sides of each section.
For each reconstruction, a series of images at regular tilt increments were collected with a JEOL 4000EX intermediate-voltage electron microscope operated at 400 kV. In order to limit anisotropic specimen thinning during image collection, the specimens were irradiated before initiating a tilt series. […] Tilt series were recorded at a magnification of 20,000× with an angular increment of 2° from −60° to +60° about an axis perpendicular to the optical axis of the microscope using a computer-controlled goniometer to achieve accurate increments at each angular step. […]

B6C3F1 oocytes = experiment: Apoptosis in cultured B6C3F1 oocytes after microinjection
Description: (§1) Oocyte isolation and culture: Oocytes were collected after superovulation as described (Perez et al. 1997; Perez et al. 1999; Morita et al. 2000). Briefly, ovulated oocytes were denuded of cumulus cells by a 1-min incubation in 80 IU ml of hyaluronidase (Sigma, St. Louis, Mo.), followed by three washes with culture medium. All cultures were carried out in human tubal fluid (Irvine Scientific, Santa Ana, Calif.) supplemented with 0.5% BSA. The oocytes were maintained in 0.1 ml drops of culture medium under paraffin oil, and incubated at 37° C. in a humidified atmosphere of 5% CO2 and 95% air.
(§2) In-vitrofertilization and embryo culture: Female mice were superovulated as described above and cumulus-oocyte complexes from the indicated strains were mixed with capacitated sperm collected from adult male mice of the respective strain for in-vitro fertilization (Morita et al. 2000). […] Since zygotes progress to the blastocyst stage of development within 96 h and begin hatching, embryos were fixed at this time and stained with the DNA-binding dye Hoechst 33342 (Sigma) for light and fluorescence microscopic analysis of blastocyst cell number and quality. […] Analysis of DNA “comets” to generate quantitative data on the percent of undamaged versus damaged DNA was performed using the VisComet program (Impuls Computergestutzte Bildanalyse GmbH, Gilching, Germany). […]

AKR/J oocytes [3] = experiment: Comet assay of DNA damage in cultured AKR/J oocytes after microinjection; conditions: 6 h culture after microinjection, versus non-injected AKR/J oocytes
Description: as §1, §2

AKR/J oocytes [4] = experiment: Apoptosis in cultured AKR/J oocytes; conditions: microinjection; versus non-injected and BSA-injected oocytes
Description: as §1, §2

FVB oocytes [5] = experiment: Apoptosis in cultured FVB oocytes; conditions: microinjection; 24 h in vitro
Description: as §1, §2

AKR/J zygotes = experiment: Preimplantation embryonic development of in-vitro fertilized AKR/J oocytes to the blastocyst stage
Description: In-vitrofertilization and embryo culture: Female mice were superovulated as described above and cumulus-oocyte complexes from the indicated strains were mixed with capacitated sperm collected from adult male mice of the respective strain for in-vitro fertilization (Morita et al. 2000). After 2 h, the cumulus-oocyte complexes were washed and maintained in KSOM medium (Specialty Media, Phillipsburg, N.J.) to determine fertilization rates and monitor embryonic progression. Since zygotes progress to the blastocyst stage of development within 96 h and begin hatching, embryos were fixed at this time and stained with the DNA-binding dye Hoechst 33342 (Sigma) for light and fluorescence microscopic analysis of blastocyst cell number and quality. Apoptosis analyses: Oocytes were evaluated as described (Perez et al. 1997; Perez et al. 1999; Mortia et al. 2000) for characteristics of apoptosis, including morphological changes (e.g., cellular condensation, budding and fragmentation) and biochemical alterations (i.e., DNA cleavage using Comet Assay Kit; Trevigen, Gaithersburg, Md.). Analysis of DNA “comets” to generate quantitative data on the percent of undamaged versus damaged DNA was performed using the VisComet program (Impuls Computergestutzte Bildanalyse GmbH, Gilching, Germany). […]

## CC[C@H]1/C=C/C=C/C[C@@H](C)[C@H](O)[C@@](C)(O)C(=O)[C@@H](C)[C@H](O)[C@@H](C)C(=O)[C@@H](C)[C@H](O)[C@@H](C)/C=C/C(=O)O[C@@H]2[C@H](C)[C@H](CC1)O[C@]1(CC[C@H](C)[C@H](C[C@@H](C)O)O1)[C@H]2C [oligomycin]
FVB oocytes [1]
  reduction of ROS content: 70%

## CC(=O)C(=O)O [pyruvate]
FVB oocytes [2]
  reduction in number of abnormal mitochondria in FVB oocytes: more than 75%

## cytochrome c: cytochrome c microinjected into oocytes (6 pl of a 400 μM stock)
B6C3F1 oocytes; subsequent 24 h culture
  apoptosis in B6C3F1 oocytes: did not affect the incidence of apoptosis

## antimycin-A
FVB oocytes [1]
  reduction of ROS content: 70%

## C=C(C)[C@H]1Cc2c(ccc3c2O[C@@H]2COc4cc(OC)c(OC)cc4[C@@H]2C3=O)O1 [rotenone]
FVB oocytes [1]
  reduction of ROS content: 54%

B1: Rad51: recombinant Rad51 DNA repair protein (Kurumizaka et al. 1999), microinjected (protein, UniProt Q06609 2-339, looked up)
DNA repair protein RAD51 …: AMQMQLEANADTSVEEESFGPQPISRLEQCGINANDVKKLEEAGFHTVEAVAYAPKKELINIKGISEAKADKILAEAAKLVPMGFTTATEFHQRRSEIIQITTGSKELDKLLQGGIETGSITEMFGEFRTGKTQICHTLAVTCQLPIDRGGGEGKAMYIDTEGTFRPERLLAVAERYGLSGSDVLDNVAYARAFNTDHQTQLLYQASAMMVESRYALLIVDSATALYRTDYSGRGELSARQMHLARFLRMLLRLADEFGVAVVITNQVVAQVDGAAMFAADPKKPIGGNIIAHASTTRLYLRKGRGETRICKIYDSPCLPEAEAMFAINADGVGDAKD
AKR/J oocytes [3]
  extent of DNA damage: decreased the extent of DNA damage
AKR/J oocytes [4]
  apoptosis in AKR/J oocytes: significantly suppressed apoptosis
FVB oocytes [5]
  incidence of apoptosis in FVB oocytes: no effect
AKR/J zygotes; microinjection into AKR/J zygotes, compared with C57BL/6 zygotes
  blastocyst formation rates of AKR/J zygotes: levels not different from those observed with C57BL/6 zygotes
AKR/J zygotes; microinjection into fertilized AKR/J oocytes, untreated less than 10%
  microinjected AKR/J zygotes completing development to the blastocyst stage: more than 30%

B2: Smac/DIABLO: recombinant death-promoting protein released along with cytochrome c from mitochondria (protein, UniProt Q9NR28 22-239, looked up)
Diablo IAP-binding …: LCVPVVANFKKRCFSELIRPWHKTVTIGFGVTLCAVPIAQKSEPHSLSSEALMRRAVSLVTDSTSTFLSQTTYALIEAITEYTKAVYTLTSLYRQYTSLLGKMNSEEEDEVWQVIIGARAEMTSKHQEYLKLETTWMTAVGLSEMAAEAAYQTGADQASITARNHIQLVKLQVEEVHQLSRKAETKLAEAQIEELRQKTQEEGEERAESEQEAYLRED
B6C3F1 oocytes; 24 h culture
  increase in incidence of apoptosis in B6C3F1 oocytes: ~3 fold
